Reference: patent publication US20210009693A1 (MABSPACE BIOSCIENCES SUZHOU, published 2021)
Each block holds one binder with its values, some of them ahead of it.

Key:
[1] = biological target: T1, Recombinant Human PD-L1/CD274 Protein (hPD-L1-his) (human, UniProt Q9NZQ7 19-238); assay: ELISA, coated hPD-L1-his, acidic wash and incubation after binding at pH7.4
T1 construct: range 19-238; ACRO Biosystem PD1-H5229, made in HEK293; also called human PD-L1-his; hPD-L-his
Description: (§1) The pH-dependent binding affinity was further measured at various pH values, such as pH4, pH4.5, pH5.0, pH5.5, pH6.0, pH7.4. The measurement by ELISA was conducted similarly to the method described above. High-binding clear polystyrene 96 well plates were coated with 100 μl/well of a 0.5 μg/ml hPD-L1-his in high pH coating buffer and incubated overnight at 4° C. Then the coated plates were washed 3 times with shaking for 10s on an automatic plate washer with PBS+0.1% Tween 20 (Amresco). Then 200 μl of blocking buffer (1% BSA (Solarbio)+1% normal goat serum (Solarbio)+0.05% Tween 20 (Amresco)) was added to each well and the plates were then incubated for 2 hours at room temperature and washed 3 times as above. […] The plates were then washed once with 250 μl/well washing buffer at pH7.4, pH6.0, pH5.5, pH5.0, pH4.5 or pH4.0 and then 100 μl/well pH7.4 or pH5.5 washing buffer was added and the incubation was continued for 2 hours at RT with shaking. Afterwards, the plates was washed 3 times washing buffer at pH7.4 and 100 μl/well of a solution of HRP conjugated goat anti-hIgG HRP antibody (1:20000, Abcam) in pH7.4 dilution buffer was then added to each well of the plate. After that the plates were allowed to incubate for 60 min at room temperature followed by washing 3 times with 250 μl/well pH7.4 washing buffer. Finally, 100 μl/well of TMB was added to each well for 15 min and the reaction was terminated using 50 μl/well of 0.16M/L sulfuric acid. The plates were read on a Thermo Multiscan FC at 450 nm (see FIG. 23A-23F). The measurements were performed in triplicate.

[2] = biological target: T1, Recombinant Human PD-L1/CD274 Protein …; assay: ELISA on coated hPD-L1-his
[3] = biological target: T1, Recombinant Human PD-L1/CD274 Protein …; assay: ELISA on coated hPD-L1-his; bound at pH7.4, then 2 h at pH5.5
Description: as §1, with “Finally, 100 μl/well of TMB was added to each well for 15 min and the reaction was terminated using 50 μl/well of 0.16M/L sulfuric acid.” left out, “The measurements were performed in triplicate.” left out

[4] = biological target: T2, human PD-L1 expressed on cells (human, UniProt Q9NZQ7 19-290); assay: blocking FACS on HCC827 cells; blocked ligand: biotinylated hPD-1-N297A
T2 construct: whole, on cells; also called hPD-L1 expressed on HCC827; hPD-L1 on MC38/hPD-L1 cells
T2 sequence (Q9NZQ7 19-290): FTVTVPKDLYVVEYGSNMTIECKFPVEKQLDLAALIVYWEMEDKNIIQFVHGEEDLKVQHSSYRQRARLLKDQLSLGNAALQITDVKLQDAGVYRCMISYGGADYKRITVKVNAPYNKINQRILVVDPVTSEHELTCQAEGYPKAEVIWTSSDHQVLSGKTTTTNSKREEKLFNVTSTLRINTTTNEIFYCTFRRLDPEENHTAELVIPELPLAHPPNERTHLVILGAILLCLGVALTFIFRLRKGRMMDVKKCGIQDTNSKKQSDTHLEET
Description: Log phase IFN-γ stimulated (500U/ml for 2 days) HCC827 cells were collected and resuspended in blocking buffer (5% BSA+PBS). 2×10\hat{ }5 cells were added to each tube and then washed once with PBS (1500 rpm, 5 mins, RT). […] After washing for three times with PBS, 100 μl/tube streptavidin-PE 1:200 in blocking buffer was added to each tube. The cells were incubated at 4° C. for 1 hr and then washed twice with PBS, followed by resuspending cells in 150 μl PBS for each sample. The cells were then transferred into FACS tube and the binding of the antibodies to the cells were detected with flow cytometry (ACEA Bioscience Novocyte) (see FIGS. 20A and 20B).

[5] = biological target: T3, wild type human PD-L1-Fc protein (SEQ ID NO: 107) (human); assay: ELISA on captured PD-L1-Fc, as in Example 18A
T3 construct: Extracellular human PD-L1 (amino acid 19-238) with Fc fragment of human IgG1, expressed in 293T cells and used as culture supernatant; also called WT PD-L1; wild-type PD-L1
T3 sequence (chain, as listed by the source limits assumed): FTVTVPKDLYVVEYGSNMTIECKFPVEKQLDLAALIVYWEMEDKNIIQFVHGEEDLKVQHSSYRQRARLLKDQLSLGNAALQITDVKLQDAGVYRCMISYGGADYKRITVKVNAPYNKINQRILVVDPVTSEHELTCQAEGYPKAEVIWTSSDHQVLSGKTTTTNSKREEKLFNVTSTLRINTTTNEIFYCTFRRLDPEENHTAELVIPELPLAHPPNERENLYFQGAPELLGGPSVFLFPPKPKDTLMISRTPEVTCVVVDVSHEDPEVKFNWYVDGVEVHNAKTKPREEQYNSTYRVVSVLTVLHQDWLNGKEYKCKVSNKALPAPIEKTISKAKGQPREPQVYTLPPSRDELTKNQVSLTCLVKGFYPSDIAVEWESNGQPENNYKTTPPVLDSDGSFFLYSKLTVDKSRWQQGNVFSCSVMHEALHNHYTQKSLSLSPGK

[6] = biological target: T4, human PD-L1-Fc mutant E58A (human); assay: ELISA on captured PD-L1-Fc, as in Example 18A
T4 construct: Position 58 counts on native human PD-L1 (NP_054862.1); also called E58A mutant
T4 sequence (chain, as listed by the source E58A E58A limits assumed): as the sequence (chain, as listed by the source limits assumed) above, with E40A counted along it

[7] = biological target: hPD-L1 (antigen of the Biacore assay) (human, UniProt Q9NZQ7 19-238, limits assumed); assay: SPR (Biacore), antibody captured on anti-human Fc, antigen in flow
Sequence of hPD-L1 (antigen of the Biacore assay) (Q9NZQ7 19-238 limits assumed): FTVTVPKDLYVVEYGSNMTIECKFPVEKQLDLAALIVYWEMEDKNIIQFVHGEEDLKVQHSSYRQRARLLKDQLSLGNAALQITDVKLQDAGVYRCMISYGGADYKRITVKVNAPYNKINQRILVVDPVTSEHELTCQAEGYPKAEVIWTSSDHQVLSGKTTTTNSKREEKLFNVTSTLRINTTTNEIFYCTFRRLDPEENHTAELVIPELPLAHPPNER
How it was run: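 Antibody captured to 200–300 RU on an anti-human Fc CM5 surface, with an uncaptured flow cell as reference; antigen injected at varying concentrations, 180 s association, in HBS-EP pH 7.4. Regeneration with glycine pH 1.5 for 120 s; reference-subtracted signals evaluated.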

[8] = biological target: T2, human PD-L1 expressed on cells; assay: flow cytometry (relative mean fluorescence) on human peripheral blood cells activated 3 days with anti-CD3 and anti-CD28; detection with anti-human IgG-APC
[9] = biological target: T1, Recombinant Human PD-L1/CD274 Protein …; assay: ELISA on coated hPD-L1-his; bound at pH7.4, then 2 h at pH7.4
Description: as §1

[10] = biological target: T5, Human PD-L1/CD274 with C-Fc Tag (hPD-L1-Fc) (human, UniProt Q9NZQ7 19-238); assay: blocking ELISA on coated hPD-L1-Fc; blocked ligand: biotinylated hPD-1-N297A
T5 construct: range 19-238; ACRO Biosystem PD1-H5258, made in HEK293; also called human PD-L1-Fc; not shown: Fc fragment of human IgG1 at C-terminus
T5 sequence (Q9NZQ7 19-238 limits assumed): as above

[11] = biological target: T1, Recombinant Human PD-L1/CD274 Protein …; assay: ELISA on coated hPD-L1-his; bound at pH7.4, then 2 h at pH5.5; remark: listed apart in the source
[12] = biological target: T1, Recombinant Human PD-L1/CD274 Protein …; assay: ELISA on coated hPD-L1-his; bound at pH7.4, then 2 h at pH7.4; remark: listed apart in the source
[13] = biological target: T5, Human PD-L1/CD274 with C-Fc Tag …; assay: blocking ELISA on coated hPD-L1-Fc; blocked ligand: biotinylated hPD-1-Fc-N297A
Description: High-binding clear polystyrene 96 well plates (Nunc) were coated with 100 μl/well of coating solution consisting of 0.5 μg/ml hPD-L1-Fc overnight at 4° C. Then washed once on an automatic plate washer using washing buffer PBS+0.1% Tween 20 (Sigma). 200 μl of blocking buffer (PBS+1% BSA+1% normal goat serum+0.05% Tween-20) was added to each well and incubated for 2 hours at room temperature. Then add serial diluted antibodies (from 10 μg/ml to 0.0006 μg/ml) with dilution buffer (PBS+1% BSA+1% normal goat serum+0.01% Tween-20) and incubate for 1 hour at RT. The plates were then washed 3 times using the method described above. […] After the plates were washed 3 times, 100 μl/well of a solution of HRP conjugated Neutravidin antibody (Pierce) diluted in dilution buffer was then added to each well of the plate. After that the ELISA plates were allowed to incubate for 60 min at RT then plates were washed 3 times with 250 μl/well washing buffer. Finally, 100 μl/well of TMB was added to each well and reaction was terminated using 0.64M H₂SO₄. The plates were read on a Thermo Multiscan FC at 450 nM (see FIG. 4A).

[14] = biological target: T3, wild type human PD-L1-Fc protein (SEQ …); assay: ELISA on hPD-L1-Fc captured from 293T supernatant, 0.5 ug/ml antibody
[15] = biological target: T6, Recombinant Mouse PD-L1/CD274 Protein (mPD-L1-his) (mouse, UniProt Q9EP73 19-238); assay: ELISA, 20 ug/ml antibody on coated mouse PD-L1 (his-tagged per text, mPD-L1-Fc per sheet title)
T6 construct: range 19-238; ACRO Biosystem PD1-M5220; also called mouse PD-L1-his
T6 sequence (Q9EP73 other isoform, or with tags, fused parts or gaps limits assumed): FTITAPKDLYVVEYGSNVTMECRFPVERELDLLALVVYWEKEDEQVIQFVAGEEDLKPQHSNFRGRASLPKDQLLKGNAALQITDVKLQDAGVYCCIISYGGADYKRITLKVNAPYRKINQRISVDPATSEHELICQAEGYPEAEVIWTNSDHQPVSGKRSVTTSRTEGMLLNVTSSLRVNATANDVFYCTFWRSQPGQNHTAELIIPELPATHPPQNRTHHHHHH
How it was run: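 Wells coated overnight at 4 °C with 1 μg/ml mouse PD-L1-his, blocked 2 h with BSA/goat serum buffer; purified hybridoma mouse antibodies at 20 μg/ml bound 1 h at RT. Detection by HRP goat anti-mouse Fc (60 min, RT), TMB, acid stop, absorbance at 450 nm.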

T1 sequence (Q9NZQ7 other isoform, or with tags, fused parts or gaps limits assumed): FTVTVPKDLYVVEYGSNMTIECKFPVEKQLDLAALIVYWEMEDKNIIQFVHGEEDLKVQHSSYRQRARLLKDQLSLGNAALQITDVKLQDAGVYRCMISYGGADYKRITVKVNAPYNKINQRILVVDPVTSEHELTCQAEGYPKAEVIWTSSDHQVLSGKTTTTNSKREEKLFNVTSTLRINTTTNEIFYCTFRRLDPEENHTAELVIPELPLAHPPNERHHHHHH

binding signal at pH5 as percent of the signal at pH7.4 [1]: < 50%
binding signal at pH5.5 as percent of the signal at pH7.4 [1]: < 75%
EC50 (read off the curve) [2]: ~0.001 µg/mL
EC50 (read off the curve) [3]: ~0.01 µg/mL
IC50 (read off the curve) [4]: ~0.03 µg/mL
Mean OD450 [5]: 1.25 OD450
OD450 nM of sample-1 [5]: 1.18 OD450
OD450 nM of sample-2 [5]: 1.33 OD450
% of binding of Ab to E58A mutant vs. that to WT PD-L1 [6]: 9.2%
Mean OD450 [6]: 0.116 OD450
OD450 nM of sample-1 [6]: 0.129 OD450
OD450 nM of sample-2 [6]: 0.103 OD450
Kd [7]: 65.4 nM
koff [7]: 0.0304 s⁻¹
kon [7]: 465000 M⁻¹ s⁻¹
EC50 [8]: 0.0305 µg/mL
EC50 (read off the curve) [9]: ~0.007 µg/mL
IC50 (read off the curve) [10]: ~0.03 µg/mL
B1: 23F11-H4L4 (antibody, V domains shown)
VH: QVQLVQSGAEVKKPGASVKLSCKASGYIFTTYWMHWVKQRPGQGLEWIGMIQPNSGGTKYNEKFKKKATLTVDKSISTAYMELSRLTSDDTAVYYCARGAGTVDYFDYWGQGSTLTVSS
VL: DIVLTQSPASLAVSVGQRATITCRASESVDIYGNSFMHWYQQKPGQPPKLLIYRASNLESGIPARFSGSGSRTDFTLTINPVEANDTATYYCQQSTEDPYTFGGGTKLEIK
notes: Human IgG1 constant region with N297A; biotinylated in the alanine-scan ELISA; also called 23F11-H4L4-bio; humanized 23F11

EC50 (read off the curve) [11]: ~0.009 µg/mL
EC50 (read off the curve) [12]: ~0.008 µg/mL
IC50 (read off the curve) [4]: ~0.06 µg/mL
B2: 23F11-H4L4 (produced in CHO cells) (antibody, V domains shown)
VH: QVQLVQSGAEVKKPGASVKLSCKASGYIFTTYWMHWVKQRPGQGLEWIGMIQPNSGGTKYNEKFKKKATLTVDKSISTAYMELSRLTSDDTAVYYCARGAGTVDYFDYWGQGSTLTVSS
VL: DIVLTQSPASLAVSVGQRATITCRASESVDIYGNSFMHWYQQKPGQPPKLLIYRASNLESGIPARFSGSGSRTDFTLTINPVEAQDTATYYCQQSTEDPYTFGGGTKLEIK
notes: also called 23F11-H4L4 (CHO cell derived); 23F11 H4L4 CHO

IC50 (read off the curve) [13]: ~0.2 µg/mL
binding result [14]: binds
binding result [15]: no binding (tested: 20 ug/ml)
B3: 21F11 (antibody, V domains shown)
VH: QVQLQQPGAELVKPGASVKLSCKASGYTFTSNWMHWVKQRPGQGLEWIGMMHPNSGSINYNEKFKNKATLTADKSSSTAYMQLSSLTSEDSAVYYCARSYYGSSPYYFDYWGQGTTLTVSS
VL: DIQMTQTTSSLSASLGDRVTISCRASQDISNYLNWYQQKPDGTVKLLIYYTSRLHSGVPSRFSGSGSGTDFSLTISNLEEEDIATYFCQQGDTLPWTFGGGTKLEIK
notes: Mouse monoclonal from hybridoma; also called mouse monoclonal antibody 21F11
